# Results from the supplement of paper PMC7877785.
# ± gives the uncertainty stated by the source.
# Experiment: self-splicing fitness, log relative to wild type (ln ratio); higher = more splicing; Tetrahymena group I intron in knt gene, E. coli kanamycin selection, DiMSum; sequences stand for … in CUCUCU…GGAGGGAAAAGUUAUCAGGCAUGCACCUGGUAGCUAGUCUUUAAACCAAUAGAUUGCAUCGGUUUAAAAGGCAAGACCGUCAAAUUGCGGGAAAGGGGUCAACAGCCGUUCAGUACCAAGUCUCAGGGGAAACUUUGAGAUGGCCUUGCAAAGGGUAUGGUAAUAAGCUGACGGACAUGGUCCUAACCACGCAGCCAAGUCCUAAGUCAACAGAUCUUCUGUUGAUAUGGAUGCAGUUCACAGACUAAAUGUCGGUCGGGGAAGAUGUAUUCUUCUCAUAAGAUAUAGUCGGACCUCUCCUUAAUGGGAGCUAGCGGAUGAAGUGAUGCAACACUGGAGCCGCUGGGAACUAAUUUGUAUGCGAAAGUAUAUUGAUUAGUUUUGGAGUACUCGUGGUCG
# Procedure, shortened: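 Library with all eight P1ex-region intron nucleotides randomised, intron inside the knt kanamycin-resistance gene on pET-22b(+), in E. coli BL21(DE3). Cells grew overnight at 37°C or 30°C on LB agar with or without 25 μg/mL kanamycin (plus 100 μg/mL carbenicillin, 50 μM IPTG, 0.2% rhamnose), in six replicate transformations. Pooled colonies were amplicon-sequenced on Illumina HiSeq 2500. DiMSum fitness is the error-weighted combination of wild-type-normalised replicate fold changes, kanamycin versus none.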
Sequence,self-splicing fitness (ln) (30 °C),self-splicing fitness (ln) (37 °C)
CGGUAGCAAUAUUACGAUAG,-0.323 ± 0.11,0.279 ± 0.14
CGGUAGCAAUAUUACGAUUA,-2.71 ± 0.31,0.554 ± 0.2
CGGUAGCAAUAUUACGCCAA,-2.52 ± 0.21,-2.6 ± 0.3
CGGUAGCAAUAUUACGCGAG,-3.58 ± 0.31,-2.36 ± 0.4
CGGUAGCAAUAUUACGCGGA,-2.54 ± 0.12,-1.26 ± 0.097
CGGUAGCAAUAUUACGCGGC,-3.99 ± 0.24,-2.79 ± 0.25
CGGUAGCAAUAUUACGCGGG,-2.49 ± 0.18,-1.88 ± 0.24
CGGUAGCAAUAUUACGCGUG,-2.11 ± 0.15,-1.82 ± 0.14
CGGUAGCAAUAUUACGCUCC,-2.2 ± 0.38,
CGGUAGCAAUAUUACGCUUC,,-0.894 ± 0.24
CGGUAGCAAUAUUACGGAAC,,-2.37 ± 0.36
CGGUAGCAAUAUUACGGCCC,-0.507 ± 0.2,0.668 ± 0.37
CGGUAGCAAUAUUACGGCGC,-2.04 ± 0.23,-1.95 ± 0.24
CGGUAGCAAUAUUACGGCGG,0.494 ± 0.093,0.0118 ± 0.096
CGGUAGCAAUAUUACGGGAC,-3.63 ± 0.47,-4.61 ± 0.46
CGGUAGCAAUAUUACGGGGA,-2.53 ± 0.24,-3.03 ± 0.47
CGGUAGCAAUAUUACGGGUC,-4.51 ± 0.46,-4.33 ± 0.39
CGGUAGCAAUAUUACGGUCA,-0.916 ± 0.092,-0.275 ± 0.084
CGGUAGCAAUAUUACGGUGA,-3.76 ± 0.41,-0.848 ± 0.17
CGGUAGCAAUAUUACGGUUA,-2.23 ± 0.13,-1.3 ± 0.11
CGGUAGCAAUAUUACGUCUC,-2.46 ± 0.12,-1.86 ± 0.13
CGGUAGCAAUAUUACGUGUU,-4.12 ± 0.28,-3.09 ± 0.27
CGUAAGCAAUAUUACGAAAG,-1.98 ± 0.13,-0.821 ± 0.12
CGUAAGCAAUAUUACGAACG,-3.04 ± 0.18,-1.76 ± 0.22
CGUAAGCAAUAUUACGACAG,-0.247 ± 0.11,-0.867 ± 0.14

Sequence,self-splicing fitness (ln) (30 °C),self-splicing fitness (ln) (37 °C)
CGUAAGCAAUAUUACGACGG,0.0203 ± 0.061,-0.0967 ± 0.082
CGUAAGCAAUAUUACGACUG,-0.564 ± 0.081,0.421 ± 0.13
CGUAAGCAAUAUUACGAGGG,-2.74 ± 0.19,-1.86 ± 0.24
CGUAAGCAAUAUUACGAUCG,-1.03 ± 0.11,-0.0852 ± 0.13
CGUAAGCAAUAUUACGCACC,,-0.957 ± 0.39
CGUAAGCAAUAUUACGCAUG,-1.88 ± 0.13,-0.863 ± 0.13
CGUAAGCAAUAUUACGCCGU,-3.89 ± 0.26,-2.65 ± 0.21
CGUAAGCAAUAUUACGCUCG,-1.8 ± 0.17,-0.572 ± 0.23
CGUAAGCAAUAUUACGGAAC,,-1.39 ± 0.39
CGUAAGCAAUAUUACGGCGG,-0.217 ± 0.072,-0.126 ± 0.096
CGUAAGCAAUAUUACGGCUG,-0.231 ± 0.062,-0.177 ± 0.095
CGUAAGCAAUAUUACGGCUU,-3.69 ± 0.21,-2.02 ± 0.25
CGUAAGCAAUAUUACGUACU,-0.922 ± 0.098,-0.936 ± 0.11
CGUAAGCAAUAUUACGUCCC,-3.09 ± 0.38,-1.21 ± 0.29
CGUAAGCAAUAUUACGUGAA,-3.19 ± 0.14,-1.61 ± 0.15
CGUAAGCAAUAUUACGUGGA,-2.93 ± 0.2,-2.44 ± 0.24
CGUAAGCAAUAUUACGUGUA,-3.25 ± 0.22,-0.592 ± 0.13
CGUAAGCAAUAUUACGUUGU,-3.29 ± 0.18,-2.53 ± 0.22
CGUCAGCAAUAUUACGAAGG,-0.693 ± 0.074,-0.652 ± 0.11
CGUCAGCAAUAUUACGACAG,-0.576 ± 0.097,0.297 ± 0.13
CGUCAGCAAUAUUACGAGGC,-4.66 ± 0.36,-3.2 ± 0.47
CGUCAGCAAUAUUACGAUAU,-2.13 ± 0.13,-0.978 ± 0.13
CGUCAGCAAUAUUACGCAAC,-3.74 ± 0.3,-2.47 ± 0.23
CGUCAGCAAUAUUACGCAGG,-3.85 ± 0.3,-1.69 ± 0.18
